# Results reported in patent US20240376221A1 (Genmab, published 2024).
# T1: human OX40 with mouse CRD3 (human with mouse CRD3, UniProt P43489 29-277)
# T1 construct: on transfected ExpiCHO-S cells; also called Shuffle 3; OX40-CRD3mm
# T1 chain: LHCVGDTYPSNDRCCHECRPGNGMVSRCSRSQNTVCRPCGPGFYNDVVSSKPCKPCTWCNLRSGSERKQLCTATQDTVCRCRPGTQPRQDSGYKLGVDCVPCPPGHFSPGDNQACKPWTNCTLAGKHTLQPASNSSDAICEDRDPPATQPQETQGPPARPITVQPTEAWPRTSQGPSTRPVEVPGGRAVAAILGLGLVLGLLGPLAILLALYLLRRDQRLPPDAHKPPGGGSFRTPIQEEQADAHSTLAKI
# T2: human OX40 with mouse CRD4 (human with mouse CRD4, UniProt P43489 29-277)
# T2 construct: on transfected ExpiCHO-S cells; also called Shuffle 4; OX40-CRD4mm
# T2 chain: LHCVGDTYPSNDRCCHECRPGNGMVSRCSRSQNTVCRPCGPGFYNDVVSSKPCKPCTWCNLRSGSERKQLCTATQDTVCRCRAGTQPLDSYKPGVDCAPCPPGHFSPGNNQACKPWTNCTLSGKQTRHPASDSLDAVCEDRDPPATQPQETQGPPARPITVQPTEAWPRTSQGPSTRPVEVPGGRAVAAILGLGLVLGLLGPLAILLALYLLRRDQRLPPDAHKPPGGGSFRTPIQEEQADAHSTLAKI
# T3: human OX40 with mouse CRD1 (human with mouse CRD1, UniProt P43489 29-277)
# T3 construct: on transfected ExpiCHO-S cells; also called Shuffle 1; OX40-CRD1mm
# T3 chain: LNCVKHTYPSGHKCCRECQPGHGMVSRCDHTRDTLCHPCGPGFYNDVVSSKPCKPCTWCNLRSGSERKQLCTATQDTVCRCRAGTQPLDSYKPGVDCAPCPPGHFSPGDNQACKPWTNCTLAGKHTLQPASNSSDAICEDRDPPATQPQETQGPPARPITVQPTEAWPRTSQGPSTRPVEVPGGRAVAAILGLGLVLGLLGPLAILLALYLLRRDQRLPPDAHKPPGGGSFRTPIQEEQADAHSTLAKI
# T4: human OX40, cell surface-expressed (human, UniProt P43489 29-277)
# T4 construct: also called CD134; TNFRSF4
# T4 sequence: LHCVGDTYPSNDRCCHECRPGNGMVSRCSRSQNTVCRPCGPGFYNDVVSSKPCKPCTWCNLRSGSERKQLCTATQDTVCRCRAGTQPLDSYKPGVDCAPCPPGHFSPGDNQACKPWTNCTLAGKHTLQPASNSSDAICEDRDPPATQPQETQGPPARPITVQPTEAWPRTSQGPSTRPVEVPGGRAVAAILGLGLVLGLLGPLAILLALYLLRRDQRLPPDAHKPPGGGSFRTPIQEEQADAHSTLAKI
# T5: cynomolgus monkey OX40, cell surface-expressed (cynomolgus monkey, UniProt P43489 29-277 (human entry))
# T5 construct: full-length, on transfected HEK293F cells
# T5 chain: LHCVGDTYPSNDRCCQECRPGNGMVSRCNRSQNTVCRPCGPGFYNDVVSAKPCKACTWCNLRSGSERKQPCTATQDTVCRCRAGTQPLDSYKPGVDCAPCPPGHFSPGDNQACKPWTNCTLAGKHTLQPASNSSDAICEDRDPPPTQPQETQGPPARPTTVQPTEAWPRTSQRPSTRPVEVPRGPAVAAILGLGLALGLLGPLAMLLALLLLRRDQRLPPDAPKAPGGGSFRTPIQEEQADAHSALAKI
# T6: human OX40 with mouse CRD2 (human with mouse CRD2, UniProt P43489 29-277)
# T6 construct: on transfected ExpiCHO-S cells; also called Shuffle 2; OX40-CRD2mm
# T6 chain: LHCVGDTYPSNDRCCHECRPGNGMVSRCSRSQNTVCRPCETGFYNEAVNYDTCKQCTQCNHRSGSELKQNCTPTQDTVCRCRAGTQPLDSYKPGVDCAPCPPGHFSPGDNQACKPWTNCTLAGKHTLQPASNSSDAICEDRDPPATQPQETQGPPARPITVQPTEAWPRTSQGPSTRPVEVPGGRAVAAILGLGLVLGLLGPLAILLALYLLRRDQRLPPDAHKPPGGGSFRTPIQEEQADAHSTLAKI
# B1: IgG1-CD134-007-RR (antibody)
# heavy: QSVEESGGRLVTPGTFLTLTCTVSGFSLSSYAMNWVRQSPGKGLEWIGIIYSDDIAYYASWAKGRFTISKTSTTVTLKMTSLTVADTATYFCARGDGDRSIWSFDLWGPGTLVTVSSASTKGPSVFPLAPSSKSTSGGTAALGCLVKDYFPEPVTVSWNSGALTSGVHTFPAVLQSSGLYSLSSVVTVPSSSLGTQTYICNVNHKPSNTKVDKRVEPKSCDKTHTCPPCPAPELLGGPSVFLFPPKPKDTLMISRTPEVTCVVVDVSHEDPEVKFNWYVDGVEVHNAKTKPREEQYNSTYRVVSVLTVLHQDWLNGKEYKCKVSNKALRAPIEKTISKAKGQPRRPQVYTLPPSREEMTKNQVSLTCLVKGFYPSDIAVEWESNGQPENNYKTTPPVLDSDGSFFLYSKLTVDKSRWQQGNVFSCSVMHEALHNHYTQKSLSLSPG
# light: AQVLTQTPSPVSAAVGGTVTISCQSSESVWNNNWLAWYQQKPGQPPNLLIYEASTLASGVSSRFKGSGSGTQFTLTVSEVQSDDAATYYCQGGYYDSSPIWTFGGGTEVVVKRTVAAPSVFIFPPSDEQLKSGTASVVCLLNNFYPREAKVQWKVDNALQSGNSQESVTEQDSKDSTYSLSSTLTLSKADYEKHKVYACEVTHQGLSSPVTKSFNRGEC
# notes: chimeric 007 with RR constant region; also called IgG1-CD134-007-P329R-E345R
# B2: IgG1-CD134-012-RR-K409R (antibody)
# heavy: QSLEESGGRLVTPGTPLTLICTVSGIDLSSGAMGWVRQAPGKGLEYIGYIYTGSGTTSYASWVNGRFTISMTSTTVDLKITSPTTEDTATYFCARDAASSYWGHFTLWGQGTLVTVSSASTKGPSVFPLAPSSKSTSGGTAALGCLVKDYFPEPVTVSWNSGALTSGVHTFPAVLQSSGLYSLSSVVTVPSSSLGTQTYICNVNHKPSNTKVDKRVEPKSCDKTHTCPPCPAPELLGGPSVFLFPPKPKDTLMISRTPEVTCVVVDVSHEDPEVKFNWYVDGVEVHNAKTKPREEQYNSTYRVVSVLTVLHQDWLNGKEYKCKVSNKALRAPIEKTISKAKGQPRRPQVYTLPPSREEMTKNQVSLTCLVKGFYPSDIAVEWESNGQPENNYKTTPPVLDSDGSFFLYSRLTVDKSRWQQGNVFSCSVMHEALHNHYTQKSLSLSPG
# light: DIVMTQTPASVEAAVGGTVTIKCQASENIYSSLAWYQQKPGQPPKLLIYRTSTLASGVPSRFKGSGSGTQFTLTISDLESDDAATYYCQSYYHNSGGGYDYGFGGGTEVVAKRTVAAPSVFIFPPSDEQLKSGTASVVCLLNNFYPREAKVQWKVDNALQSGNSQESVTEQDSKDSTYSLSSTLTLSKADYEKHKVYACEVTHQGLSSPVTKSFNRGEC
# notes: chimeric 012; also called IgG1-CD134-012-P329R-E345R-K409R
# How the values were obtained:
# [1] = molecular target: T1, human OX40 with mouse CRD3; experiment: flow cytometry, ExpiCHO-S cells with human OX40 carrying mouse CRD3
# Protocol: (§1) The four shuffle constructs, as well as wild-type human and mouse OX40 were transiently expressed on ExpiCHO-S cells using the ExpiFectamine™ CHO Transfection Kit (ThermoFisher, cat. no. A29131), according to the manufacturer's protocol. […] Next, cells were washed twice in FACS buffer 1, were resuspended in a 30 μL solution of viability marker ToPro-3 (Invitrogen, cat. no. T3605, diluted 1:10,000) in FACS buffer 1 supplemented with 2 mM EDTA, and were analyzed on an iQue Screener Plus (Intellicyt Corporation, USA). Data were analyzed using FlowJo software and visualized using GraphPad Prism.
# [2] = molecular target: T2, human OX40 with mouse CRD4; experiment: flow cytometry, ExpiCHO-S cells with human OX40 carrying mouse CRD4
# Protocol: (§2) Data shown are the geometric mean of the fluorescence intensity (gMFI) from one representative experiment out of two experiments performed.
# as §1
# [3] = molecular target: T3, human OX40 with mouse CRD1; experiment: flow cytometry, ExpiCHO-S cells with human OX40 carrying mouse CRD1
# Protocol: as §2, §1
# [4] = molecular target: T4, human OX40, cell surface-expressed; experiment: flow cytometry, ExpiCHO-S cells with human OX40
# Protocol: as §1
# [5] = molecular target: T5, cynomolgus monkey OX40, cell …; experiment: flow cytometry, HEK293F cells with cynomolgus monkey OX40
# Protocol: Transfected cells were seeded in 96-well plates (30,000 cells/well; ThermoFisher, cat. no. 163320) for sequential incubations, with washing steps in between using fluorescence-activated cell sorting (FACS) buffer 1 (phosphate buffered saline [PBS; Lonza, cat. no. BE17-517Q] supplemented with 0.1% bovine serum albumin [BSA; Roche, cat. no. 10735086001] and 0.02% sodium azide [NaN₃; Bio-World, cat. no. 41920044-3]) supplemented with 2 mM ethylenediaminetetraacetic acid (EDTA; Sigma-Aldrich, cat. no. 03690). […] Cells were then washed using EDTA-supplemented FACS buffer 1, resuspended in a 30 μL solution of viability marker ToPro-3 (Invitrogen, cat. no. T3605, diluted 1:10,000) in EDTA-supplemented FACS buffer 1, and subsequently analyzed on an iQue® 3 flow cytometer (Satorius). Data were analyzed using FlowJo software and were visualized using GraphPad Prism.
# [6] = molecular target: T6, human OX40 with mouse CRD2; experiment: flow cytometry, ExpiCHO-S cells with human OX40 carrying mouse CRD2
# Protocol: as §1
Binder,EC50 (read off the curve) [1] [µg/mL],EC50 (read off the curve) [2] [µg/mL],EC50 (read off the curve) [3] [µg/mL],EC50 (read off the curve) [4] [µg/mL],EC50 (read off the curve) [5] [µg/mL],EC50 (read off the curve) [6] [µg/mL]
B1,~0.02,~0.009,~0.005,~0.005,–,–
B2,~0.1,~0.1,–,~0.06,~0.05,~0.1
